The record followed here is article PMC11315185 (Heliyon, 2024).

The test addresses CDC48A-ND1 (a CDC48A construct containing the N and first ATPase domains) (Arabidopsis thaliana, UniProt P54609 1-484). The test is described as follows: ITC. For orientation: Isothermal titration calorimetry measures the heat released or taken up as one component is titrated into another.

CDC48A-ND1 (a CDC48A construct containing the N and first ATPase domains), sequence (P54609 1-484): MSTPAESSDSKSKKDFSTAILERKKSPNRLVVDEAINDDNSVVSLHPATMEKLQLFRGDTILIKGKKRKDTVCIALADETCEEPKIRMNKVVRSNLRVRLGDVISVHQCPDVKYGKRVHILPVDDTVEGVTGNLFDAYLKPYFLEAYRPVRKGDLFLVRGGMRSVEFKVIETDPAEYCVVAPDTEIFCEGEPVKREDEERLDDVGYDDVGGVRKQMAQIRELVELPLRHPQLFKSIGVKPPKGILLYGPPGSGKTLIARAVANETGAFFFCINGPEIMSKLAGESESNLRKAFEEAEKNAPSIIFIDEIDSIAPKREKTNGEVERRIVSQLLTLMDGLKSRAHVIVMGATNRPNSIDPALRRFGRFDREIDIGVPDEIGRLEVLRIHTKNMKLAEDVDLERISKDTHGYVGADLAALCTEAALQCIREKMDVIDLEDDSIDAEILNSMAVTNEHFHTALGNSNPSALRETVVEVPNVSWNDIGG

B1: Arabidopsis PUX3 (natural protein, Arabidopsis thaliana, UniProt Q9SUG6 1-302, looked up)
chain: MSSKDKKLSKPTSGRTGGIRTLSDLNRRSEPDSDSDSDGPQEYFTGGEKSGMLVQDPTKEPKHDDVDEIFNQARQLGAVEGPLEHPSSSRSFTGTGRLLSGESVPTALQQPEPVIHNIIFWSNGFTVDDGPLRKLDDPENASFLDSIRKSECPKELEPVDKRAPVHVNLMRRDEKCPEKEKLKVSFQGVGRTLGGASSSTASSQSNLTDVAAVQSPLQSLVVDETLPSTSIQLRLADGTRMVAKFNNHHTVNDIRGFIEFSRPGNPNNYTLQVMGFPPKPLTDPSQTIEQAGLASSVVIQKF
Take B1: binding was characterised by a dissociation constant (Kd) of 5.6 ± 1.6 µM and the “stoichiometry N” value was approximately 0.5.

B2: Arabidopsis PUX4 (natural protein, Arabidopsis thaliana, UniProt Q8RWU7 1-303, looked up)
chain: MSSKDKKPSKPSSSRGGIRTLSDLNRRSGPDSDSDSDGPQEYYTGGEKSGMLVQDPSKKDDVDEIFNQARQLGAVEGPLEPPPSSRSFTGTGRLLSGENVPTGNQQPEPVVHNIVFWSNGFTIDDGPLRKLDDPENASFLESIRKSECPKELEPADRRAPVHVNLMRKEEKCPERQKRRVSFQGVGRTLGGSNEGSGSSSPVAPDSAPIPIQTEPAPSQSLVIDETVPTTSIQLRLADGTRLVAKFNHHHTVNDIRGFIDSSRPGASLNYQLQTMGFPPKPLTDLTQTIEEAGLANSVVLQKF
Regarding B2, the affinity, expressed as Kd, was 2.7 ± 0.9 µM and the “stoichiometry N” value is approximately 0.5.

B3: P-NAD5_(SHP-UBX) (P-NAD5 with helix1 and the SEP domain deleted) (other)
chain: QVQLVESGGALVQPGGSLRLSCAASGFPVNRYSMRWYRQAPGKEREWVAGMSSAGDRSSYEDSVKGRFTISRDDARNTVYLQMNSLKPEDTAVYYCNVNVGFEYWGQGTQVTVSSEPPKPKNPFQGVGRTLGASGSGSSSAPQASSAPMNVAPAPSRGLVVDPAAPTTSIQLRLADGTRLVSRFNNHHTVRDVRGFIDASRPGGSKEYQLLTMGFPPKQLTELDQTIEQAGIANAVVIQKF
With B3, the affinity, expressed as Kd, was 12.3 ± 3.7 µM and the “stoichiometry N” value was 1.

For orientation: Kd means the equilibrium constant for the complex coming apart. As a reminder, the stoichiometry N is the number of molecules, sites or subunits per partner or assembly.
